Experiments:
[1] = biological target: T1, TNFRSF25 on lymphocytes in human PBMCs (human, UniProt Q93038 25-417); test: flow cytometry MFI on CD4+ T cells of human PBMCs, IL12+IL18 stimulation 24 h, APC anti-human Fc
T1 construct: whole, on cells; also called TNFRSF25 on CD4+ and CD8+ T cells and NK cells
T1 sequence (looked up): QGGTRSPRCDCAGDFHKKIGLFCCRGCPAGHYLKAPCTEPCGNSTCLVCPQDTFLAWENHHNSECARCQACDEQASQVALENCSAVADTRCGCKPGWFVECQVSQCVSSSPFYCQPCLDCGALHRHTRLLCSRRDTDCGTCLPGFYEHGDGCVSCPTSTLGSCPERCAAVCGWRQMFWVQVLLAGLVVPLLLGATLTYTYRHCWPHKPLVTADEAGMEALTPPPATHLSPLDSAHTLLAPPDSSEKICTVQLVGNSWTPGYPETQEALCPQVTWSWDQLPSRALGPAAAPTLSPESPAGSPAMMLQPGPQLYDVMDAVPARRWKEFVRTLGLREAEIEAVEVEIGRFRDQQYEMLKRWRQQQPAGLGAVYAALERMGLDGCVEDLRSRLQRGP
Procedure: (§1) Human PBMCs were stimulated with either IL12+IL18 or anti-CD3/CD28 for 24 hours to assess binding of anti-TNFRSF25 to lymphocyte subsets.
(§2) Figure 9: FIG. 9. […] Figure 10: FIG. 10.

[2] = biological target: T1, TNFRSF25 on lymphocytes in human PBMCs; test: flow cytometry MFI on CD4+ T cells of human PBMCs, anti-CD3/CD28 stimulation 24 h, APC anti-human Fc
Procedure: as §1, §2

[3] = biological target: T2, LTbR; test: flow cytometry on engineered mammalian cells overexpressing LTbR, APC anti-human Fc
T2 construct: member of group m24; also called LTbR overexpressed in engineered mammalian cells

[4] = biological target: T1, TNFRSF25 on lymphocytes in human PBMCs; test: flow cytometry MFI on CD8+ T cells of human PBMCs (panel 1003_CD8+T), IL12+IL18 stimulation 24 h, APC anti-human Fc
Procedure: as §1, §2

[5] = biological target: T1, TNFRSF25 on lymphocytes in human PBMCs; test: flow cytometry MFI on NK cells of human PBMCs, no stimulation, APC anti-human Fc
[6] = biological target: FcγR1 (CD64), BLI reagent (UniProt P12314 16-288, limits assumed); test: BLI; antibody as analyte at 300 nM on FcγR1
FcγR1 (CD64), BLI reagent, sequence (P12314 16-288 limits assumed): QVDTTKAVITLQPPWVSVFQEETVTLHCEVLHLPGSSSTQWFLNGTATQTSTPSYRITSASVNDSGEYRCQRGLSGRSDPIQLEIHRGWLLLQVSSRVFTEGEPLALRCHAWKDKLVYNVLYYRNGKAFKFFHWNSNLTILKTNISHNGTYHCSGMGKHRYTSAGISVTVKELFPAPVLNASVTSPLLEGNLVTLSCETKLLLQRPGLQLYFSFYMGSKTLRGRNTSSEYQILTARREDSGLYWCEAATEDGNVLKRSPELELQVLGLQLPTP

[7] = biological target: T1, TNFRSF25 on lymphocytes in human PBMCs; test: flow cytometry MFI on CD8+ T cells of human PBMCs (panel 1003_CD8+T), anti-CD3/CD28 stimulation 24 h, APC anti-human Fc
Procedure: as §1, §2

[8] = biological target: T1, TNFRSF25 on lymphocytes in human PBMCs; test: flow cytometry MFI on CD8+ T cells of human PBMCs (panel 1003_CD8+T), no stimulation, APC anti-human Fc
[9] = biological target: T1, TNFRSF25 on lymphocytes in human PBMCs; test: flow cytometry MFI on NK cells of human PBMCs, IL12+IL18 stimulation 24 h, APC anti-human Fc
Procedure: as §1, §2

[10] = biological target: T3, biotinylated recombinant human FcRn-His tagged protein (Acro #FCM-H82W7) (human, UniProt P55899 24-297; P61769 21-119, biotinylated); test: BLI/Octet; biotinylated human FcRn-His on streptavidin biosensor; pH 7.4
T3 construct: also called hFcRn; neonatal Fc receptor
T3 sequence (P55899 24-297 limits assumed, chain 1 of 2): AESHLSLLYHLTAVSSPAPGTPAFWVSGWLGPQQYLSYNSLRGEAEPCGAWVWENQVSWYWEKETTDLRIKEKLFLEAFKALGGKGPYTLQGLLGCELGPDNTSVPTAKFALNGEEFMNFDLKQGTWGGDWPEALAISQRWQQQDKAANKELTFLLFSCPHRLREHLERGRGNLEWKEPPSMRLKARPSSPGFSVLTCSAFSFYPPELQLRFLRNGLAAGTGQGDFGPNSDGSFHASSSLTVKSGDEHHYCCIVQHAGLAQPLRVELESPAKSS
T3 sequence (P61769 21-119 limits assumed, chain 2 of 2): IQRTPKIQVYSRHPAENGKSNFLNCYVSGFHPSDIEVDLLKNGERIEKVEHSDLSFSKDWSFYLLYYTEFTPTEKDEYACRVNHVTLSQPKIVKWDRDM
Procedure: (§3) Figure 5D: FIG. 5D. FcRn binding kinetics by anti-TNFRSF25 antibodies. BLI assay was performed using the Octet Red 96e instrument. Streptavidin biosensors were loaded with biotinylated recombinant human(h) FcRn-His tagged protein (Acro #FCM-H82W7) as the ligand. During the association phase, biosensors were incubated with anti-DR3 candidate antibodies at various concentrations for 600 seconds, followed by a 600-second dissociation phase.
(§4) To detect binding of certain whole antibodies to the neonatal Fc receptor (FcRn) at neutral and acidic pH conditions, streptavidin biosensors were loaded with biotinylated recombinant human FcRn-His tagged protein (Acro #FCM-H82W7) as the ligand. During the association phase, biosensors were incubated with anti-TNFRSF25 antibodies at various concentrations for 600 seconds, followed by a 600 second dissociation phase.

[11] = biological target: T4, biotinylated recombinant human TNFRSF25-His tagged (Acro #TN5-H52H3) (human, UniProt Q93038 25-199, biotinylated); test: SPR (Biacore 8K); biotinylated TNFRSF25-His on streptavidin chip SA, SL-061 flowed; 1:1 binding
T4 construct: treated as the same protein; also called recombinant biotin-conjugated human TNFRSF25 protein; DR3
T4 sequence (looked up): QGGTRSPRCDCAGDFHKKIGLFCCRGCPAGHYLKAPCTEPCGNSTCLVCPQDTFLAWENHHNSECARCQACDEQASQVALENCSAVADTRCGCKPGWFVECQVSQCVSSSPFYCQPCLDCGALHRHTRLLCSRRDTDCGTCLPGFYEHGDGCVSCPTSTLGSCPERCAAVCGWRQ
Procedure: (FIG. 5A) BLI assay was performed using the Octet Red 96e instrument. Streptavidin biosensors were loaded with biotinylated recombinant human TNFRSF25-His tagged (Acro #TN5-H52H3) as the ligand. […] (FIG. 5B) SPR was performed on a Biacore 8K instrument.

[12] = biological target: T3, biotinylated recombinant human FcRn-His …; test: BLI/Octet; biotinylated human FcRn-His on streptavidin biosensor; pH 6.0
Procedure: as §3, §4

[13] = biological target: T1, TNFRSF25 on lymphocytes in human PBMCs; test: flow cytometry MFI on NK cells of human PBMCs, anti-CD3/CD28 stimulation 24 h, APC anti-human Fc
Procedure: as §1, §2

B1: SL-061 (antibody, human IgG1, kappa)
heavy: QVQLQQSGPGLVKPSQTLSLTCAISGDSVSGYSAAWNWIRQSPSRGLEWLGRTYYRSKWYNDYAVSVKSRITINPDTSKNQFSLQLNSVTPEDTAVYYCARDYYGSESYYNRGYYYYGMDVWGQGTTVTVSSASTKGPSVFPLAPSSKSTSGGTAALGCLVKDYFPEPVTVSWNSGALTSGVHTFPAVLQSSGLYSLSSVVTVPSSSLGTQTYICNVNHKPSNTKVDKKVEPKSCDKTHTCPPCPAPEAAGAPSVFLFPPKPKDTLMISRTPEVTCVVVDVSHEDPEVKFNWYVDGVEVHNAKTKPREEQYNSTYRVVSVLTVLHQDWLNGKEYKCKVSNKALPAPIEKTISKAKGQPREPQVYTLPPSREEMTKNQVSLTCLVKGFYPSDIAVEWESNGQPENNYKTTPPVLDSDGSFFLYSKLTVDKSRWQQGNVFSCSVMHEALHNHYTQKSLSLSPGK
light: AIQLTQSPSSLSASVGDRVTITCRASPGISSALAWYQQKPGKAPKLLMYDESSQESGVPSRFSGSGSGTDFTLTISSLQPEDFATYYCQQFNDYPLTFGGGTKVEIKRTVAAPSVFIFPPSDEQLKSGTASVVCLLNNFYPREAKVQWKVDNALQSGNSQESVTEQDSKDSTYSLSSTLTLSKADYEKHKVYACEVTHQGLSSPVTKSFNRGEC
notes: Same variable regions as SL-033; IgG1 with L234A/L235A+G237A; also called clone 061; SL-061 (L234A/L235A+G237A)
[1]
  EC50: 0.035 nM
[2]
  EC50: 0.059 nM
[3]
  binding result: no binding (tested: about 20 nM)
[4]
  EC50: 0.043 nM
[5]
  EC50: 0.078 nM
[6]
  binding result: no binding (tested: 300 nM)
[7]
  EC50: 0.059 nM
[8]
  EC50: 0.068 nM
[9]
  EC50: 0.065 nM
[10]
  Kd: 7.41 nM
  koff: 0.00327 s⁻¹
  kon: 441000 M⁻¹ s⁻¹
[11]
  Kd: 0.00136 nM
[12]
  Kd: 4.41 nM
  koff: 0.00104 s⁻¹
  kon: 235000 M⁻¹ s⁻¹
[13]
  EC50: 0.054 nM
